According to US20200363410A1:

Columns and labels:
[1] = biological target: biotinylated MPT63 (Rv1926c) polypeptide (M. tuberculosis H37Rv)
[2] = biological target: biotinylated Ag85B (Rv1886c) polypeptide (M. tuberculosis H37Rv) (UniProt A5U3Q3)
[3] = biological target: biotinylated MTC28 (Rv0040c) polypeptide (M. tuberculosis H37Rv)
[4] = biological target: biotinylated MPT64 (Rv1980c) polypeptide (M. tuberculosis H37Rv)
[5] = biological target: biotinylated Ag85A (Rv3804c) polypeptide (M. tuberculosis H37Rv)

Chain of streptavidin (P22629 37-163 limits assumed): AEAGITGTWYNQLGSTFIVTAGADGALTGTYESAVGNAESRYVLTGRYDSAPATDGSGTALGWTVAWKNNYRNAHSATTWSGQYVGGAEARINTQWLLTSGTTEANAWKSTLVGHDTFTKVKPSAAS

streptavidin (from UniProt P22629 37-163)
Extent of biotinylation (share of protein adsorbed on streptavidin beads) [1]: 99.9%
Fold reduction in protein reactivity after adsorption [1]: 1000 fold
Extent of biotinylation (share of protein adsorbed on streptavidin beads) [2]: 99.9%
Fold reduction in protein reactivity after adsorption [2]: 1000 fold
Extent of biotinylation (share of protein adsorbed on streptavidin beads) [3]: 99.8%
Fold reduction in protein reactivity after adsorption [3]: 500 fold
Extent of biotinylation (share of protein adsorbed on streptavidin beads) [4]: 99.8%
Fold reduction in protein reactivity after adsorption [4]: 500 fold
Extent of biotinylation (share of protein adsorbed on streptavidin beads) [5]: 99.9%
Fold reduction in protein reactivity after adsorption [5]: 4000 fold
